# “And” between values parts separate entries of the source, which are not always exact repeats. Equal values may be shown once.
# B1: Geranylgeranylglyceryl phosphate synthase, O26652 (parent)
# chain: MKVEDYFHDILRERKIHLTLIDPEEQTPEEAVEIARAAIRGGTDGIMLGGSTTDSSELDNTARALRENIDVPIILFPGNTTGVSRYADAIFFMSLLNSTNPYWIIGAQALGAATVKKMGIEALPMGYLVVEPGGTVGWVGDTKPVPRNKPDIAAAYAMAAEFLGMRLFYLEAGSGAPEHVPEEMIALVKRCTDQILIVGGGIRSGEDAARVAGAGADVVVTGTVVENSDNVEDKIREIVEGMGSV
# Variants of: B1
# Details: Methanothermobacter thermautotrophicus (strain ATCC 29096 / DSM 1053 / JCM 10044 / NBRC 100330 / Delta H); pH 7.5; Thermal; DSC; potassium phosphate buffer; reversible: no; structure 4MM1; whole UniProt chain shown
Variant,unfolding enthalpy (calorimetric),Tm [°C]
MKVEDYFHDILRERKIHLTLIDPEEQTPEEAVEIARAAIRGGTDGIMLGGSTTDSSELDNTARALRENIDVPIILFPGNTTGVSRYADAIFFMSLLNSTNPYWIIGAQALGAATVKKMGIEALPMGYLVVEPGGTVGAVGDTKPVPRNKPDIAAAYAMAAEFLGMRLFYLEAGSGAPEHVPEEMIALVKRCTDQILIVGGGIRSGEDAARVAGAGADVVVTGTVVENSDNVEDKIREIVEGMGSV [W138A],106 kcal/mol and 78.2 kcal/mol,
MKVEDYFHDILRERKIHLTLIDPEEQTPEEAVEIARAAIRGGTDGIMLGGSTTRSSELDNTARALRENIDVPIILFPGNTTGVSRYADAIFFMSLLNSTNPYWIIGAQALGAATVKKMGIEALPMGYLVVEPGGTVGWVGDTKPVPRNKPDIAAAYAMAAEFLGMRLFYLEAGSGAPEHVPEEMIALVKRCTDQILIVGGGIRSGEDAARVAGAGADVVVTGTVVENSDNVEDKIREIVEGMGSV [D54R],187 kcal/mol and 88 kcal/mol,
MKVEDYFHDILRERKIHLTLIDPEEQTPEEAVEIARAAIRGGTDGIMLGGSTTDSSELDNTARALRENIDVPIILFPGNTTGVSRYADAIFFMSLLNSTNPYWIIGAQALGAATVKKMGIEALPMGYLVVEPGGTVGWVGDTAPVPRNKPDIAAAYAMAAEFLGMRLFYLEAGSGAPEHVPEEMIALVKRCTDQILIVGGGIRSGEDAARVAGAGADVVVTGTVVENSDNVEDKIREIVEGMGSV [K143A],100 kcal/mol,
MKVEDYFHDILRERKIHLTLIDPEEQTPEEAVEIARAAIRGGTDGIMLGGSTTDSSELDNTARALRENIDVPIILFPGNTTGVSRYADAIFFMSLLNSTNPAWIIGAQALGAATVKKMGIEALPMGYLVVEPGGTVGWVGDTKPVPRNKPDIAAAYAMAAEFLGMRLFYLEAGSGAPEHVPEEMIALVKRCTDQILIVGGGIRSGEDAARVAGAGADVVVTGTVVENSDNVEDKIREIVEGMGSV [Y102A],104 kcal/mol and 108 kcal/mol,
MKVEDYFHDILRERKIHLTLIDPEEQTPEEAVEIARAAIRGGTDGIMLGGSTTDSSELDNTARALRENIDVPIILFPGNTTGVSRYADAIFFMSLLNSTNPYWIIGAQALGAATVKKMGIEALPMGYLVVEPGGTVGWVGDTKPVPRNKPDIAAAYAMEAEFLGMRLFYLEAGSGAPEHVPEEMIALVKRCTDQILIVGGGIRSGEDAARVAGAGADVVVTGTVVENSDNVEDKIREIVEGMGSV [A159E],173 kcal/mol,64

# Same assay, conditions: Methanothermobacter thermautotrophicus (strain ATCC 29096 / DSM 1053 / JCM 10044 / NBRC 100330 / Delta H); pH 7.5; Thermal; DSF; potassium phosphate buffer; reversible: no; structure 4MM1; whole UniProt chain shown
row,Variant,Tm [°C]
1,MKVEDYFHDILRERKIHLTLIDPEEQTPEEAVEIARAAIRGGTDGIMLGGSTTRSSELDNTARALRENIDVPIILFPGNTTGVSRYADAIFFMSLLNSTNPYWIIGAQALGAATVKKMGIEALPMGYLVVEPGGTVGWVGDTKPVPRNKPDIAAAYAMAAEFLGMRLFYLEAGSGAPEHVPEEMIALVKRCTDQILIVGGGIRSGEDAARVAGAGADVVVTGTVVENSDNVEDKIREIVEGMGSV [D54R],52.2
2,MKVEDYFHDILRERKIHLTLIDPEEQTPEEAVEIARAAIRGGTDGIMLGGSTTDSSELDNTARALRENIDVPIILFPGNTTGVSRYADAIFFMSLLNSTNPYWIIGAQALGAATVKKMGIEALPMGYLVVEPGGTVGWVGDTAPVPRNKPDIAAAYAMAAEFLGMRLFYLEAGSGAPEHVPEEMIALVKRCTDQILIVGGGIRSGEDAARVAGAGADVVVTGTVVENSDNVEDKIREIVEGMGSV [K143A],66
3,MKVEDYFHDILRERKIHLTLIDPEEQTPEEAVEIARAAIRGGTDGIMLGGSTTDSSELDNTARALRENIDVPIILFPGNTTGVSEYADAIFFMSLLNSTNPYWIIGAQALGAATVKKMGIEALPMGYLVVEPGGTVGWVGDTKPVPRNKPDIAAAYAMAAEFLGMRLFYLEAGSGAPEHVPEEMIALVKRCTDQILIVGGGIRSGEDAARVAGAGADVVVTGTVVENSDNVEDKIREIVEGMGSV [R85E],53.9

# From FireProtDB (doi:10.1021/acs.biochem.7b01284)
